Blank lines part the entries; values can stand above or below the molecule they belong to.
Key:
CBX2 = CBX2 (UniProt Q14781); test: co-IP with anti-Myc, anti-HA immunoblot; settings: reference: HA-USP27X wild type; sites S135
His-Myc-CBX2 = target: T1, His-Myc-CBX2 (human, UniProt Q14781 1-532); test: pull-down; GST-USP27X bound to glutathione-Sepharose 4B beads incubated with His-Myc-CBX2 for 2 h at 4 °C; retained proteins immunoblotted; settings: both partners purified
T1 construct: Chromobox protein homolog 2 (CBX2), human; the His-Myc construct is named only in the pull-down methods; the cloning of a His-Myc construct is not described; also called Purified Myc-CBX2
T1 sequence (looked up): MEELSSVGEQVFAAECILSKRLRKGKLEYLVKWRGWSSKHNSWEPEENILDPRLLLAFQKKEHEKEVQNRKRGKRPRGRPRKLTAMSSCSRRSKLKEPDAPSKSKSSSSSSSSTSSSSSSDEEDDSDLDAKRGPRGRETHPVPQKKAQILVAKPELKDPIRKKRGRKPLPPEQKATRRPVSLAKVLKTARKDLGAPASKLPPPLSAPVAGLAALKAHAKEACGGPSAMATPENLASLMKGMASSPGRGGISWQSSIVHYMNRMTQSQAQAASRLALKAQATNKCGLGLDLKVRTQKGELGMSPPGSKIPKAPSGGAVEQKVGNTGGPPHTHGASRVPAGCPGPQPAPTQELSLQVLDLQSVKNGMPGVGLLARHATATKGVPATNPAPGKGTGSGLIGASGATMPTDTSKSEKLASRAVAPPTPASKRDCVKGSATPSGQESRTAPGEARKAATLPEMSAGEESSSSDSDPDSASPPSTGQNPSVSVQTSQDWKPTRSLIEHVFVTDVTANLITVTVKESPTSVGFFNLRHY

binding against the reference (CBX2): weaker
Molecule: USP27X (from UniProt A6NNY8) HA-USP27X S135A

binding result (His-Myc-CBX2): binds
B1: GST-USP27X (enzyme, human, UniProt A6NNY8 1-438, looked up)
chain: MCKDYVYDKDIEQIAKEEQGEALKLQASTSTEVSHQQCSVPGLGEKFPTWETTKPELELLGHNPRRRRITSSFTIGLRGLINLGNTCFMNCIVQALTHTPILRDFFLSDRHRCEMPSPELCLVCEMSSLFRELYSGNPSPHVPYKLLHLVWIHARHLAGYRQQDAHEFLIAALDVLHRHCKGDDVGKAANNPNHCNCIIDQIFTGGLQSDVTCQACHGVSTTIDPCWDISLDLPGSCTSFWPMSPGRESSVNGESHIPGITTLTDCLRRFTRPEHLGSSAKIKCGSCQSYQESTKQLTMNKLPVVACFHFKRFEHSAKQRRKITTYISFPLELDMTPFMASSKESRMNGQLQLPTNSGNNENKYSLFAVVNHQGTLESGHYTSFIRHHKDQWFKCDDAVITKASIKDVLDSEGYLLFYHKQVLEHESEKVKEMNTQAY
notes: ubiquitin-specific peptidase 27X (USP27X), human cDNA cloned into pGEX-1λT (plasmids section) or pGEX-4T-1 (pull-down section); also called GST-USP27X-WT; Recombinant GST-USP27X; source: E. coli BL21, purified (GST beads)
